Source: US20260008856A1, “METHODS OF TREATING DISEASE USING ANTI-IL1RAP ANTIBODIES AND ANTIBODY DRUG CONJUGATES” (Bluefin Biomedicine, Inc., priority 2022, published 2026)
Residue numbers refer to the chain shown, from its start.

B1: 36A12_21C1: human anti-IL1RAP antibody, VH SEQ ID NO: 144, VL SEQ ID NO: 147 (antibody, V domains shown)
VH: EVQLVESGGGLVQPGGSLRLSCAASGFTLSFYWMTWVRQAPGKGLEWVANIKQDGNEKNYVDSVKGRFTISKDNAKKSVFLQMNSLRAEDTAVYYCAREGYFGSGYFDYWGQGTLVTVSS
VL: DIQMTQSPSTLSASVGDRVTITCRASQSINSWLAWYQQKPGKAPKLLIYKASTLESGVPSRFSGSGSGTEFTLTISSLQPDDFAPYYCQHYNSYPHTFGQGTKVEIK
B2: 33H2_21B1: human anti-IL1RAP antibody, VH SEQ ID NO: 140, VL SEQ ID NO: 143 (antibody, V domains shown)
VH: EVQVVESGGGLVQPGGSLRLSCATSGFTFRSYWMTWVRQAPGKGLEWVANIKQDGSERHYVDSVKGRFTISRDNAKTSLYLQMSSLRAEDTAMYYCAREGYYGSGYFDYWGQGTLVTVSS
VL: B1 VL with T20I, N30S, S31R, W32G, T53N, P85A, H90Q, N92S, S93Y, P95S
B3: 34D1_21B3: human anti-IL1RAP antibody, VH SEQ ID NO: 136, VL SEQ ID NO: 137 (antibody, V domains shown)
VH: QGQLVESGGGVVQPGRSLRLSCAASGFTFSSYTLHWVRQAPGKGLEWVAVIWYDGSNKYYVDSVKGRFTISRDNSKNTLYLQMNSLRAEDTAVYYCAREYGSGSYYNVYYGMDVWGQGTTVTVSS
VL: DIVMTQSPLSLPVTPGEPASISCRSSQSLLHSNGYKYLDWYLQKAGQSPHLLIYLGSNRASGVPDRFSGSGSGTDFTLKISRVEAEDVGFYYCMQTLQIPLTFGGGTKLEIK
B4: 38E10_21C3: human anti-IL1RAP antibody, VH SEQ ID NO: 74, VL SEQ ID NO: 78 (antibody, V domains shown)
VH: EVQLLESGGGLVQPGGSLRLSCAASGFTFSNYAMTWVRQAPGKGLEWVSSISISRAGTYYADSVKGRFTISRDNSKNTLNLQMNSLRAEDTAEYYCAREYYYGMDVWGQGTTVTVSS
VL: EIVLTQSPATLSLSPGERATLSCRASQSVSSYLAWYQQKPGQTPRLLIYDASNRATGIPARFSGSGSGTDFTLTISSLETEDFAVYYCQQLINWPLTFGGGTKLEIK
B5: 32C12_21A4: human anti-IL1RAP antibody, VH SEQ ID NO: 32, VL SEQ ID NO: 36 (antibody, V domains shown)
VH: QVQLVESGGGVVQPGRSLRLSCAASGFTFRNYGIHWVRQAPGKGLEWVAVIWYDGSNKFYADSVKGRFTISRDNSKNTLYLQMNSLRVEDTAVYYCAREEGIAVAPFDYWGQGTLVTVSS
VL: DIQMTQSPSSLSASVGDRVAITCRANQSIASYLNWYQQKPGKAPKLLIYGASSLQNGVPSRFSGSGSRTDFTLTISSLQPEDFATYYCQQSYSTEITFGQGTRLEIK
B6: 10C8_15A1: human anti-IL1RAP antibody, VH SEQ ID NO: 9, VL SEQ ID NO: 13 (antibody, V domains shown)
VH: QVQLVESGGGVVQPGRSLRISCAASGFTFRSYGMHWVRQAPGKGLEWVAIIWHDESYKYYVDSVKGRFTISRDNSKNTLYLQMNSLRAEDTAVYYCARGDYYGSGSYYDAFDIWGQGTMVTVSS
VL: DIQMTQSPSSLSASVGDRVIITCRASQGISNYLAWFQQKPGKCPNLLIYAASTLRSGVPSRFSGSGSGTDFTLTISSLQPEDVATYYCQKYNSAPYTFGQGTKVEIK
B7: 34H8_21B4: human anti-IL1RAP antibody, VH SEQ ID NO: 185, VL SEQ ID NO: 189 (antibody, V domains shown)
VH: QVQLQESGPGLVKPSETLSLTCAVSGYSASGLYYWAWIRQPPGKGLEWIGNIYHSGRTYYNPSLESRVSISLDTSKHQVSLKLKSVTYADTAVYFCARDRFDGFDIWGQGTMVTVSS
VL: EIVMTQSPATLSVSPGERATLSCRASQTINNILAWYQQKPGQAPRLLIYGASTRATGIPARFSGSGSGTEFTLTISSLQSEDFAVYYCQQYNNWPLTFGGGTKLEIK
B8: 31F9_21A1: human anti-IL1RAP antibody, VH SEQ ID NO: 118, VL SEQ ID NO: 120 (antibody, V domains shown)
VH: QVQLVESGGGMVQPGRSLRLSCTASGFTFSSHGMHWVRQAPGKGLEWVAVIWFDGSNEYYVDSVKGRFTISRDNSKNTLYLQMNSLRAEDTAVYYCARENVYGSGWFFDYWGQGTLVTVSS
VL: EIVMTQSPATLSVSPGERASLSCRASQSVGSNLAWYQQKPGQAPRLLIFGASTRATGIPARFSGSRSGTEFTLTISSLQSEDFALYYCQQYNNWPPWTFGQGTKVEIK
B9: 35D11_22A1: human anti-IL1RAP antibody, VH SEQ ID NO: 127, VL SEQ ID NO: 128 (antibody, V domains shown)
VH: B8 VH with V2L, M11V, T23A, H32Y, F53Y, N57S, V61A, Y80F, E89D
VL: B8 VL with N92D, V105L
B10: 33E9_21A6: human anti-IL1RAP antibody, VH SEQ ID NO: 125, VL SEQ ID NO: 126 (antibody, V domains shown)
VH: B8 VH with V2L, M11V, P14F, T23A, F53Y, N57S, V61A
VL: B8 VL with V105L
B11: 32F9_21A5: human anti-IL1RAP antibody, VH SEQ ID NO: 123, VL SEQ ID NO: 124 (antibody, V domains shown)
VH: B8 VH with V2L, M11V, T23A, F53Y, N57S, V61A, T115S
VL: B8 VL with V105L
B12: 32D4_21D6: human anti-IL1RAP antibody, VH SEQ ID NO: 121, VL SEQ ID NO: 122 (antibody, V domains shown)
VH: B8 VH with V2L, M11V, T23A, H32Y, F53Y, N57S, V61A
VL: B8 VL
B13: 41G4_15B6: human anti-IL1RAP antibody, VH SEQ ID NO: 116, VL SEQ ID NO: 36 (antibody, V domains shown)
VH: B5 VH with I34M
VL: B5 VL

The molecules below were run on Karpas 299 (assay: Flow cytometry binding to endogenous cell line Karpas 299). Conditions: primary antibody 1 ug/ml.
Format: cell-based, human
Parameters: key to binding to Karpas 299 by flow cytometry: (−): No binding; (+): Weak binding; (++): Moderate binding; (+++): Strong binding
Method: (§1) Staining for flow cytometry was performed in 1× cold PBS with 0.5% BSA. Primary antibodies (1 ug/ml) were incubated with live cells on ice for 30 minutes, after a brief wash, cells were incubated with Alexa Fluro® 488-conjugated anti-human IgG secondary antibody @1:1000 (709-546-149, Jackson ImmunoResearch). Acquisition of the data was performed on a MACSQuant® Flow Cytometers (Miltenyi Biotec) and analyzed with FlowJo software.
(§2) Over 1,000 hits were identified that bind strongly to CHO-human IL1RAP, but not parental CHO cells. 68 clones were selected for molecular cloning. Based on unique CDR3 sequences from the heavy chain variable domain, 35 antibodies from 13 families were confirmed by binding in IL1RAP positive cell lines EOL1 and Karpas 299 (see Table 8) by flow cytometry (MACSQuant® www.miltenybiotec.com).
In the case of B1, the “binding to Karpas 299 by flow cytometry” value is reported as “(+++)”.
For B2, the “binding to Karpas 299 by flow cytometry” value was “(+++)”.
In the case of B3, the “binding to Karpas 299 by flow cytometry” value is reported as “(++)”.

Each molecule was assayed against T1, recombinant human IL1RAP (Homo sapiens, UniProt Q9NPH3) (assay: Binding competition binning on Octet). Conditions: Protein A biosensors.
T1 construct: MBP-IL1RAP(S21-T367)-; 8xHis (C); made in house; host or cells: CHO (ExpiCHO transient expression)
Method: Binding Competition binning: Binding competition among different antibodies was determined using a real-time, interferometry assay on an Octet Red™ instrument with Protein A-conjugated biosensors. To assess whether two antibodies competed for binding to a recombinant IL1RAP protein, the assay was performed as follows. Protein A biosensors were first submerged into wells containing 10 ug/mL of individual monoclonal antibodies for 5 minutes. Following the capture step, the biosensors were dipped briefly (15 seconds) into buffer and then any unoccupied sites on the biosensor were saturated by submerging them for 5 minutes into wells containing 100 ug/mL of an irrelevant monoclonal antibody. The Octet™ biosensors were then dipped briefly (15 seconds) in buffer before immersion for 1 minute into wells containing recombinant IL1RAP. The biosensors were dipped briefly (15 seconds) in buffer before immersion for 1 minute into wells containing a second recombinant antibody.
For the control case where the second antibody was the same as the first, there was no increase in signal, because there was no additional binding to the recombinant target.
For the control case where buffer was used instead of the first antibody, no recombinant target bound the non-quenching antibody on the biosensor and no second antibody bound the biosensor.
Selected antibodies were evaluated in pairs for their ability to simultaneously bind recombinant human IL1RAP. The analysis was performed by Octet™ loaded with Protein A Biosensors. A total of five different bins were determined as follows.
In the case of B4, the “competition for binding, bin (1)” value is reported as “competed with each other”.
With B5 the “competition for binding, bin (2)” value was “competed with each other”.
B6 was tested, and the “competition for binding, bin (2)” value was “competed with each other”.

Each molecule was assayed on MOLT3 (assay: Flow cytometry binding to endogenous cell line MOLT3). Conditions: primary antibody 1 ug/ml.
Format: cell-based
Parameters: key: (−): No binding; (+): Weak binding; (++): Moderate binding; (+++): Strong binding
Method: as §1
In the case of B4, the “binding to MOLT3 by flow cytometry” value is reported as “(+)”.
With B1 the “binding to MOLT3 by flow cytometry” value was “(+)”.
For B2, the “binding to MOLT3 by flow cytometry” value was “(+)”.
B5 was tested, and the “binding to MOLT3 by flow cytometry” value was “(+)”.
With B6 the “binding to MOLT3 by flow cytometry” value was “(−)”.
B7 was tested, and the “binding to MOLT3 by flow cytometry” value was “(+)”.
For B8, the “binding to MOLT3 by flow cytometry” value was “(+)”.
With B9 the “binding to MOLT3 by flow cytometry” value was “(+)”.
For B10, the “binding to MOLT3 by flow cytometry” value was “(+)”.
In the case of B11, the “binding to MOLT3 by flow cytometry” value is reported as “(+)”.
In the case of B12, the “binding to MOLT3 by flow cytometry” value is reported as “(+)”.
In the case of B3, the “binding to MOLT3 by flow cytometry” value is reported as “(+)”.

The molecules below were run on EOL-1 (assay: Flow cytometry binding to endogenous cell line EOL-1). Conditions: primary antibody 1 ug/ml.
Format: cell-based, human
Parameters: key to binding to EOL-1 by flow cytometry: (−): No binding; (+): Weak binding; (++): Moderate binding; (+++): Strong binding
Method: as §1, §2
In the case of B4, the “binding to EOL-1 by flow cytometry” value is reported as “(+++)”.
B1 was tested, and the “binding to EOL-1 by flow cytometry” value was “(+++)”.
B2 was tested, and the “binding to EOL-1 by flow cytometry” value was “(+++)”.
B5 was tested, and the “binding to EOL-1 by flow cytometry” value was “(+++)”.
For B13, the “binding to EOL-1 by flow cytometry” value was “(+++)”.
For B6, the “binding to EOL-1 by flow cytometry” value was “(+++)”.
With B7 the “binding to EOL-1 by flow cytometry” value was “(+++)”.
In the case of B8, the “binding to EOL-1 by flow cytometry” value is reported as “(+++)”.
B9 was tested, and the “binding to EOL-1 by flow cytometry” value was “(+++)”.
For B10, the “binding to EOL-1 by flow cytometry” value was “(+++)”.
With B11 the “binding to EOL-1 by flow cytometry” value was “(+++)”.
B12 was tested, and the “binding to EOL-1 by flow cytometry” value was “(+++)”.
With B3 the “binding to EOL-1 by flow cytometry” value was “(+++)”.
